Sequences and labels used below:
B1: TCR 868 CDR3-alpha fragment GAHDYALN, as printed (the 868 form used here; an outside source, not checked, gives natural 868 a different CDR3-alpha) (parent)
chain: GAHDYALN

Among the data in paper PMC8979966 are screen value values, retold here.

In the assay the parent is B1. Description: YAMTAD yeast mating, deep sequencing; 2 biological x 4 technical repeats. The note with it: with SL9 ([…]) on HLA-A*02:01, single chain; S. cerevisiae mating; SL9 group vs negative-control group; higher = more enriched with SL9 than with the negative controls; the paper calls a variant enriched at SL9/NC > 1 and P < 0.05; unresolved parent; not an affinity; keep out of graded; scale: ratio 'SL9/NC': mean frequency in the SL9-HLA-A*02:01 group / mean frequency in the sheet's 'NC' group, each normalised …; numbering: sequential-on-construct, sequence starts at 1.
Take LAHDYALN: the screen value was 1.21.
For the variant GLHDYALN, the screen value stood at 1.06.
For GACDYALN, the screen value worked out at 1.13.
